Consider seven molecules from patent publication US11053304 (CENTIVAX, dated 2021).

Residue numbers refer to the chain shown, from its start. Where two headings read alike, the source gives them in different places. Where only a bound is given, the exact number is not on record here.

Holding throughout (test): SPR, scFv captured via anti-V5, RBD as analyte
Experiment [1] deals with T1, SARS-CoV-2 Receptor Binding Domain (RBD) protein (SARS-CoV-2, UniProt P0DTC2 319-541).
The target of experiment [2] is SARS-CoV-1 Receptor Binding Domain (RBD) protein (SARS-CoV-1, UniProt P59594 306-527).
In experiment [3] the target is MERS Receptor Binding Domain (RBD) protein (MERS coronavirus, UniProt K9N5Q8 367-606).
In experiment [4] the target is T1, SARS-CoV-2 Receptor Binding Domain …. The source holds these as a separate data set.

B1: COVID19_P19_C08 (scFv, V domains shown)
VH: EVQLVESGGGLVQPGGSLRLSCAASGFTFSSYAMHWVRQAPGKGLEWVSAISASSAGAYYADSVKGRFTISRDNSKNTLYLQMNSLRAEDTAVYYCVTNMDNSRDYFPHYFHDMDVWGQGTLVTVSS
VL: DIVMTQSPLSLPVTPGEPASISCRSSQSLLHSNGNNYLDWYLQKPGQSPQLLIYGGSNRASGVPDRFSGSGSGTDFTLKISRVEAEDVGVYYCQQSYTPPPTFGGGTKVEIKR
With B1, in experiment [1], binding was characterised by a dissociation constant (Kd) of 27.6 nM, the koff was 0.0047 s⁻¹ and the kon is 170000 M⁻¹ s⁻¹. Also, the binding result in experiment [2] is “no binding (tested: up to 300 nM)”. Further, the binding result in experiment [3] is “no binding (tested: up to 300 nM)”. Also, the Kd in experiment [4] was below 50 nM.

B2: COVID19_P07_F10 (scFv, V domains shown)
VH: B1 VH with A33G, A50G, I51V, S55G, A56G, A58P
VL: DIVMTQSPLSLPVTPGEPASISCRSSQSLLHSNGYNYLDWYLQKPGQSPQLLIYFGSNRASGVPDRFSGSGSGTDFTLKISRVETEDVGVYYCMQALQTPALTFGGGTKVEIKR
In experiment [1], B2 showed a Kd of 8.05 nM, a koff of 0.000483 s⁻¹ and a kon of 60000 M⁻¹ s⁻¹. The binding result in experiment [2] was “no binding (tested: up to 300 nM)”. For the same molecule, the binding result in experiment [3] was “no binding (tested: up to 300 nM)”. Further, the Kd in experiment [4] is below 50 nM.

B3: COVID19_P08_G02 (scFv, V domains shown)
VH: B1 VH with A33G, V37I, I51V, S55G, A56D, G57R, A58T, Y59H, M100L
VL: DIVMTQSPLSLPVTPGEPASISCRSSQSLVHSDGYTYLNWYLQKPGQSPQLLIYVGSYRASGVPDRFSGSGSGTDFTLKISRVEAEDVGVYYCMQASQWPPTFGGGTKVEIKR
As for B3, the Kd in experiment [1] was 2.71 nM; in experiment [4], below 50 nM. The same molecule gave a koff in experiment [1] of 0.0001 s⁻¹. The same molecule had a kon in experiment [1] of 38000 M⁻¹ s⁻¹. Further, the binding result in experiment [2] and in experiment [3] was “no binding (tested: up to 300 nM)” throughout.

B4: COVID19_P19_F02 (scFv, V domains shown)
VH: B1 VH with A33G, I51Y, A53G, S55G, A56G, G57Y, A58T, Y60F
VL: DIVMTQSPLSLPVTPGEPASISCKSSQSLLHINGFNYLDWFLQKPGQSPQLLIYLGSNRAPGVPDRFSGSGSGTDFTLKISRVEAEDVGVYYCQQSLQNPRTFGGGTKVEIKR
In experiment [1], B4 gave a Kd of 36.1 nM, a koff of 0.00384 s⁻¹ and a kon of 106000 M⁻¹ s⁻¹. The binding result in experiment [2] was “no binding (tested: up to 300 nM)”. Further, the binding result in experiment [3] is recorded as “no binding (tested: up to 300 nM)”. In experiment [4], this molecule yielded a Kd below 50 nM.

B5: COVID19_P20_A11 (scFv, V domains shown)
VH: B1 VH with A53G, S55G, A56D, G57N, A58T
VL: not shown
In experiment [1], B5 yielded a Kd of 20.2 nM, a koff of 0.000872 s⁻¹ and a kon of 43100 M⁻¹ s⁻¹. In experiment [2], the binding result is reported as “no binding (tested: up to 300 nM)”. The binding result in experiment [3] was “no binding (tested: up to 300 nM)”. Moreover, in experiment [4], the Kd is below 50 nM.

B6: COVID19_P08_D04 (scFv, V domains shown)
VH: B1 VH with T28I, H35N, A50G, A53G, S55G, A56G, M100L
VL: DIVMTQSPLSLPVTPGEPASISCRSSQSLLQSNGYNYMDWYLQKPGQSPQLLIYLTSNRAAGVPDRFSGSGSGTDFTLKISRVEAEDVGVYYCQQSYGPPLTFGGGTKVEIKR
As for B6, the Kd in experiment [1] is 0.86 nM; in experiment [4], below 50 nM. Further, the koff in experiment [1] came to 5.7e-05 s⁻¹. Further, in experiment [1], the kon is 66000 M⁻¹ s⁻¹. The binding result in experiment [2] and in experiment [3] was “no binding (tested: up to 300 nM)” each time.

B7: COVID19_P07_F01 (scFv, V domains shown)
VH: B1 VH with I51V, S52G, A53D, S55G, A56R, G57S, A58T, M100L
VL: not shown
In experiment [1], B7 had a Kd of 0.8 nM, a koff of 5.7e-05 s⁻¹ and a kon of 68000 M⁻¹ s⁻¹. Moreover, the binding result in experiment [2] is listed as “no binding (tested: up to 300 nM)”. In experiment [3], the binding result was “no binding (tested: up to 300 nM)”. The Kd in experiment [4] was below 50 nM.
